The values that follow come from PMC9168760, “A novel AMPK activator shows therapeutic potential in hepatocellular carcinoma by suppressing HIF1α‐mediated aerobic glycolysis” (Molecular Oncology, 2022).

The target of this assay is T1, hypoxia‐inducible factor 1‐alpha (human (endogenous in PLC5), UniProt Q16665 1-826).
T1 construct: HIF1α, endogenous protein of human HCC cells, immunoprecipitated or blotted with HIF1α antibodies; also called HIF1α
The assay can be described thus: co-IP; cells treated with DMSO or SCT‐1015; immunoprecipitation with HIF1α antibodies, blot for PHD3; 400 μg whole‐cell extract, 4 μg antibody overnight at 4 °C, protein A/G magnetic beads. As to conditions: partners not purified.

T1 sequence (Q16665 whole entry): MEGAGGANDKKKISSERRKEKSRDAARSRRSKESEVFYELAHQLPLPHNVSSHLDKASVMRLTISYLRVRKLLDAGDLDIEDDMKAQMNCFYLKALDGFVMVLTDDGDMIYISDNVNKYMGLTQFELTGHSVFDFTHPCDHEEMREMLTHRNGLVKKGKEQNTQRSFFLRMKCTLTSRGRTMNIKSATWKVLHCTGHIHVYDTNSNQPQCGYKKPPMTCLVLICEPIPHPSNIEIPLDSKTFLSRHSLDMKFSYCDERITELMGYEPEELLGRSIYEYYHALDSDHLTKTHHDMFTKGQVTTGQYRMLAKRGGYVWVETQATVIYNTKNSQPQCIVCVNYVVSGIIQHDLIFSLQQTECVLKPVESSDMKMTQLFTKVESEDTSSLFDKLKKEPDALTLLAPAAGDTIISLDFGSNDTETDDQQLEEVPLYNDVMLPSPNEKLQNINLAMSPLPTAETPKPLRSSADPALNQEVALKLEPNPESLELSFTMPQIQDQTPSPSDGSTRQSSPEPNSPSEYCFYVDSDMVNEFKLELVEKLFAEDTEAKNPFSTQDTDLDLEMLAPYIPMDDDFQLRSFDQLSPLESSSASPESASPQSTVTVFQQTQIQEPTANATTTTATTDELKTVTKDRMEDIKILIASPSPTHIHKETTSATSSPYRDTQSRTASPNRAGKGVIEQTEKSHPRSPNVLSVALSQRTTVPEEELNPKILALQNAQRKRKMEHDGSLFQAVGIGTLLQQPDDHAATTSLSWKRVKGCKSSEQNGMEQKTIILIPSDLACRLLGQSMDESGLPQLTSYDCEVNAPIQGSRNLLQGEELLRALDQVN

B1: prolyl hydroxylase 3 (enzyme, human (endogenous in HCC cells), UniProt Q9H6Z9 1-239, looked up)
chain: MPLGHIMRLDLEKIALEYIVPCLHEVGFCYLDNFLGEVVGDCVLERVKQLHCTGALRDGQLAGPRAGVSKRHLRGDQITWIGGNEEGCEAISFLLSLIDRLVLYCGSRLGKYYVKERSKAMVACYPGNGTGYVRHVDNPNGDGRCITCIYYLNKNWDAKLHGGILRIFPEGKSFIADVEPIFDRLLFFWSDRRNPHEVQPSYATRYAMTVWYFDAEERAEAKKKFRNLTRKTESALTED
notes: PHD3, endogenous protein detected with the PHD3 antibody (Abcam ab30782) in HIF1α immunoprecipitates; also called PHD3; PHD
With B1, the “fold change of the ratio PHD3/HIF1α in the HIF1α immunoprecipitate, SCT‐1015 against DMSO” value was 1.6 fold.
